Source: patent US6506595

Legend:
[1] = biological target: MWPmp20-(His)6-EGF-TEV-Somatostatin 28

B1: TEV protease (GIBCO BRL) (protein)
chain: GESLFKGPRDYNPISSTICHLTNESDGHTTSLYGIGFGPFIITNKHLFRRNNGTLLVQSLHGVFKVKNTTTLQQHLIDGRDMIIIRMPKDFPPFPQKLKFREPQREERICLVTTNFQTKSMSSMVSDTSCTFPSSDGIFWKHWIQTKDGQCGSPLVSTRDGFIVGIHSASNFTNTNNYFTSVPKNFMELLTNQEAQQWVSGWRLNADSVLWGGHKVFMSKPEEPFQPVKEATQLMNELVYSQ
cleavage of the fusion protein, shown by SDS-PAGE and Western blotting (MWPmp20-TEV-G-GH): the mutant human growth hormone G-GH with extra Gly at the N-terminus was cleaved at the same position (as indicated by an arrow) as the commercially available human growth hormone | cleavage of the fusion protein, shown by Western blotting [1]: somatostatin 28 was cleaved out with TEV protease
